Data from US20030175735.

Tested on: recombinant protein ACp5 (p5 cleavage site of the HIV protease inserted between amino acids 224 and 225 of the adenyl cyclase of B. pertussis)

wild-type protease of the HIV virus
cleavage in vitro: The cleavage of ACp5 by the HIV protease was also shown in vitro
phenotype on McConkey maltose medium of DHT1 bacteria cotransformed with pKACp5 and pUCVIH: exhibit a Cya^- phenotype (white colonies on McConkey maltose medium) in the absence of protease inhibitors
